The results in this text go back to patent publication US20210246204A1 (Alector, published 2021).

In assay [1] the target is human Siglec-7 on primary human monocyte-derived dendritic cells (human, UniProt Q9Y286 19-467). The assay can be described thus: cell-based or functional assay.
Assay [2] addresses T1, histidine-tagged human Siglec-7 (NovoProtein) (human, UniProt Q9Y286 19-353).
T1 construct: Bought protein; also called recombinant human Siglec-7; recombinant Siglec-7; not shown: histidine tag
The assay can be described thus: BLI, antibody captured. How it is done:
In this assay, the humanized antibodies were compared directly to S7AB. Briefly, the antibodies were captured on anti-human or anti-mouse IgG Fc Biosensors (Pall ForteBio). Varying concentrations (0-100 nM) of histidine-tagged human Siglec-7 (NovoProtein) were then bound to the captured anti-Siglec-7 surface (200 s association time, 900 s dissociation time). Multi-concentration kinetic analysis was performed using a 1:1 interaction model to extract association and dissociation rate constants (kₐ and kd, respectively) for each antibody. Apparent affinity constants (KD) were calculated from the ratio kd/kₐ.
The affinities of S7AB-H8 and variants S7AB-H8.1 through S7AB-H8.45 for human Siglec-7 were measured by BioLayer Interferometry according to the method described in Example 1 above.

Numbering of substitutions follows the chain as printed.

Chain of human Siglec-7 on primary human monocyte-derived dendritic cells (Q9Y286 19-467): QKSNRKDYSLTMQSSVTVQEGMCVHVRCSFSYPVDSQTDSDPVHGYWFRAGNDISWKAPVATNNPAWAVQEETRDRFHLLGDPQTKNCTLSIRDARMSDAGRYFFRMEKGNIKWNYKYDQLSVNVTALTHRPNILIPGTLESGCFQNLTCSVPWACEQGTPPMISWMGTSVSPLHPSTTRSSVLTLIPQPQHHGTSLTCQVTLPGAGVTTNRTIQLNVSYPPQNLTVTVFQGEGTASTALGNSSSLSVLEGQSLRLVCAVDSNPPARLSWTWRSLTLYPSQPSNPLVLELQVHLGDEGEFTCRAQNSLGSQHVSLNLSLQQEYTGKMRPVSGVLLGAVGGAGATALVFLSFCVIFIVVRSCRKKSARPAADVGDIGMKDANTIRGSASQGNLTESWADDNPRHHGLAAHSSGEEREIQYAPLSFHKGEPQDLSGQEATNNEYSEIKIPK
T1 sequence (Q9Y286 19-353 limits assumed): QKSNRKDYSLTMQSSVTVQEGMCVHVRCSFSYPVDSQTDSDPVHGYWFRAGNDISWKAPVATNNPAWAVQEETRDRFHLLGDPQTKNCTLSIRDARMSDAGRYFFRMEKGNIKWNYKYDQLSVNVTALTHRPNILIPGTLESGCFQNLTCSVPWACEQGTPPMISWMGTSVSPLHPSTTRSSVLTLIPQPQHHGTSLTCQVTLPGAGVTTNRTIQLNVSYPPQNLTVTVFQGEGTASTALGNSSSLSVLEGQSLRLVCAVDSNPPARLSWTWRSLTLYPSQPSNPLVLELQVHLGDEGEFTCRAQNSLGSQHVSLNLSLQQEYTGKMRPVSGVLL

B1: S7AB-H8.15 (antibody, V domains shown)
VH: QVQLVQSGAEVKKPGASVKVSCKASGYAFTEAWMNWVRQAPGQGLEWIGRIFPGYGHTNYAQKFQGRATLTEDTSTSTAYMELSSLRSEDTAVYYCARDYSDYYFDYWGQGTLVTVSS
VL: DIQMTQSPSSLSASVGDRVTITCRGSQDINTYLNWYQQKPGKAPKLLIYYTSRLHSGVPSRFSGSGSGTDYTLTISSLQPEDFATYYCQGGNTLPWTFGQGTKLEIK
In general, Kd refers to the constant that tells how readily two partners part at equilibrium. What is called koff is a measure of how fast the partners let go of each other. Read a low koff as a long-lived complex. As usually defined, the kon is a measure of how fast the partners come together. A low value points to slow association. Regarding B1, in assay [1], the “Maximal downregulation (% Siglec-7 remaining)” value was found to be 85% and the “Receptor downregulation, (EC50) (pM)” value is above 3000 pM. In assay [2], binding was characterised by a dissociation constant (Kd) of 2.6 nM, the “fold improvement over S7AB-H8” value amounted to 0.4 fold, the koff was determined as 0.000607 s⁻¹ and the kon was 233000 M⁻¹ s⁻¹.

B2: S7AB-H8.24 (antibody, V domains shown)
VH: B1 VH with E31A, Y55L
VL: B1 VL with G25A, Q27E, G90Q, N92G
B2: in assay [1], the “Fold increase in potency compared to AB-H8” value (from here on “Fold increase … to AB-H8”) came out at 2.6 fold; the “Fold increase in potency compared to Chimeric Ab” value (from here on “Fold increase … to Chimeric Ab”) is 8 fold; the “Maximal downregulation (% Siglec-7 remaining)” value was 4.3%; the “Receptor downregulation, (EC50) (pM)” value was 129 pM. In addition, in assay [2], the Kd amounted to 0.0368 nM, the “fold improvement over S7AB-H8” value was found to be 28.5 fold, the koff was 4.81e-06 s⁻¹ and the kon was 131000 M⁻¹ s⁻¹.

B3: S7AB-H8.25 (antibody, V domains shown)
VH: B1 VH
VL: B1 VL with G25A, Q27E, G90Q, N92G
In the case of B3, in assay [1], the “Fold increase … to AB-H8” value came to 1.8 fold; the “Fold increase … to Chimeric Ab” value worked out at 5.4 fold; the “Maximal downregulation (% Siglec-7 remaining)” value was 9.2%; the “Receptor downregulation, (EC50) (pM)” value is 189 pM. In addition, in assay [2], the Kd was 0.265 nM, the “fold improvement over S7AB-H8” value turned out to be 4 fold, the koff came out at 2.77e-05 s⁻¹ and the kon stood at 104000 M⁻¹ s⁻¹.

B4: S7AB-H8.27 (antibody, V domains shown)
VH: B1 VH with E31M
VL: B1 VL with G25A, I29A, G90Q, T93L
Take B4: in assay [1], the “Fold increase … to AB-H8” value was determined as 3.6 fold; the “Fold increase … to Chimeric Ab” value amounted to 10.9 fold; the “Maximal downregulation (% Siglec-7 remaining)” value came to 2.9%; the “Receptor downregulation, (EC50) (pM)” value amounted to 93.7 pM. In assay [2], the Kd amounted to 0.1 nM, the “fold improvement over S7AB-H8” value came out at 10.5 fold, the koff is 1.56e-05 s⁻¹ and the kon amounted to 156000 M⁻¹ s⁻¹.

B5: S7AB-H8.21 (antibody, V domains shown)
VH: B1 VH with A32T, Y55L
VL: B1 VL with G25A, Q27E, G90Q, N92G
As to B5, in assay [1], the “Fold increase … to AB-H8” value was found to be 2.2 fold; the “Fold increase … to Chimeric Ab” value turned out to be 6.8 fold; the “Maximal downregulation (% Siglec-7 remaining)” value was 13.6%; the “Receptor downregulation, (EC50) (pM)” value came out at 152 pM. Moreover, in assay [2], binding was characterised by a dissociation constant (Kd) of 0.936 nM, the “fold improvement over S7AB-H8” value is 1.1 fold, the koff was found to be 0.000125 s⁻¹ and the kon was found to be 133000 M⁻¹ s⁻¹.

B6: S7AB-H8.17 (antibody, V domains shown)
VH: B1 VH with E31M
VL: B1 VL with I29T, G90Q
Take B6: in assay [1], the “Fold increase … to AB-H8” value amounted to 2.9 fold; the “Fold increase … to Chimeric Ab” value was determined as 8.8 fold; the “Maximal downregulation (% Siglec-7 remaining)” value worked out at 8%; the “Receptor downregulation, (EC50) (pM)” value was 116 pM. Moreover, in assay [2], the Kd turned out to be 0.814 nM, the “fold improvement over S7AB-H8” value stood at 1.3 fold, the koff is 0.000104 s⁻¹ and the kon was determined as 128000 M⁻¹ s⁻¹.

B7: S7AB-H8.20 (antibody, V domains shown)
VH: B1 VH
VL: B1 VL with I29T, G90Q
On to B7, for which, in assay [1], the “Fold increase … to AB-H8” value was 1.4 fold; the “Fold increase … to Chimeric Ab” value turned out to be 4.2 fold; the “Maximal downregulation (% Siglec-7 remaining)” value amounted to 10.6%; the “Receptor downregulation, (EC50) (pM)” value was determined as 245 pM. For the same molecule, in assay [2], the Kd came to 1.81 nM, the “fold improvement over S7AB-H8” value worked out at 0.6 fold, the koff was determined as 0.000145 s⁻¹ and the kon was found to be 79900 M⁻¹ s⁻¹.

B8: S7AB-H8.22 (antibody, V domains shown)
VH: B1 VH with E31M
VL: B1 VL with G25A, Q27E, G90Q, N92G
Take B8: in assay [1], the “Fold increase … to AB-H8” value came out at 3.1 fold; the “Fold increase … to Chimeric Ab” value amounted to 9.4 fold; the “Maximal downregulation (% Siglec-7 remaining)” value was 3.9%; the “Receptor downregulation, (EC50) (pM)” value turned out to be 109 pM. Also, in assay [2], the Kd was below 0.001 nM, the “fold improvement over S7AB-H8” value is above 1000 fold, the koff is below 1e-07 s⁻¹ and the kon was 135000 M⁻¹ s⁻¹.

B9: S7AB-H8.23 (antibody, V domains shown)
VH: B1 VH with E31G, A32Y, Y55L
VL: B1 VL with G25A, Q27E, G90Q, N92G
As to B9, in assay [1], the “Fold increase … to AB-H8” value was 3.8 fold; the “Fold increase … to Chimeric Ab” value was 11.4 fold; the “Maximal downregulation (% Siglec-7 remaining)” value came to 17.2%; the “Receptor downregulation, (EC50) (pM)” value was determined as 90.1 pM. For the same molecule, in assay [2], binding was characterised by a dissociation constant (Kd) of 0.235 nM, the “fold improvement over S7AB-H8” value worked out at 4.5 fold, the koff worked out at 5.53e-05 s⁻¹ and the kon was found to be 235000 M⁻¹ s⁻¹.

B10: S7AB-H8.19 (antibody, V domains shown)
VH: B1 VH with E31A, Y55L
VL: B1 VL with I29T, G90Q
B10: in assay [1], the “Fold increase … to AB-H8” value was found to be 3.5 fold; the “Fold increase … to Chimeric Ab” value came to 10.5 fold; the “Maximal downregulation (% Siglec-7 remaining)” value was 6.7%; the “Receptor downregulation, (EC50) (pM)” value is 97.8 pM. In assay [2], the dissociation constant (Kd) was 0.898 nM, the “fold improvement over S7AB-H8” value was determined as 1.2 fold, the koff is 0.000112 s⁻¹ and the kon is 125000 M⁻¹ s⁻¹.

B11: S7AB-H8.16 (antibody, V domains shown)
VH: B1 VH with A32T, Y55L
VL: B1 VL with I29T, G90Q
On to B11, for which, in assay [1], the “Fold increase … to AB-H8” value was 1 fold; the “Fold increase … to Chimeric Ab” value stood at 2.9 fold; the “Maximal downregulation (% Siglec-7 remaining)” value turned out to be 10.1%; the “Receptor downregulation, (EC50) (pM)” value was determined as 348 pM. In addition, in assay [2], the affinity, expressed as Kd, was 2.53 nM; the “fold improvement over S7AB-H8” value came out at 0.4 fold; the koff was determined as 0.000165 s⁻¹; the kon turned out to be 65400 M⁻¹ s⁻¹.

B12: S7AB-H8.26 (antibody, V domains shown)
VH: B1 VH with A32T, Y55L
VL: B1 VL with G25A, I29A, G90Q, T93L
Turning to B12, in assay [1], the “Fold increase … to AB-H8” value stood at 1.9 fold; the “Fold increase … to Chimeric Ab” value amounted to 5.7 fold; the “Maximal downregulation (% Siglec-7 remaining)” value is 9.8%; the “Receptor downregulation, (EC50) (pM)” value stood at 180 pM. For the same molecule, in assay [2], binding was characterised by a dissociation constant (Kd) of 0.397 nM, the “fold improvement over S7AB-H8” value was 2.6 fold, the koff worked out at 5.9e-05 s⁻¹ and the kon worked out at 149000 M⁻¹ s⁻¹.

B13: S7AB-H8.18 (antibody, V domains shown)
VH: B1 VH with E31G, A32Y, Y55L
VL: B1 VL with I29T, G90Q
As for B13, in assay [1], the “Fold increase … to AB-H8” value came to 5 fold; the “Fold increase … to Chimeric Ab” value stood at 15.2 fold; the “Maximal downregulation (% Siglec-7 remaining)” value amounted to 18.9%; the “Receptor downregulation, (EC50) (pM)” value was 67.3 pM. Besides, in assay [2], the Kd is 0.712 nM, the “fold improvement over S7AB-H8” value stood at 1.5 fold, the koff came out at 0.000142 s⁻¹ and the kon is 199000 M⁻¹ s⁻¹.
